Source: patent US20260055179A1 (ALENTIS THERAPEUTICS, published 2026)

Target: T1, human Claudin-1 (CLDN1) (human, UniProt O95832 1-211)
T1 construct: whole, on cells; Transmembrane tight-junction protein, endogenously expressed on primary human cholangiocytes in the flow cytometry assay
T1 sequence (looked up): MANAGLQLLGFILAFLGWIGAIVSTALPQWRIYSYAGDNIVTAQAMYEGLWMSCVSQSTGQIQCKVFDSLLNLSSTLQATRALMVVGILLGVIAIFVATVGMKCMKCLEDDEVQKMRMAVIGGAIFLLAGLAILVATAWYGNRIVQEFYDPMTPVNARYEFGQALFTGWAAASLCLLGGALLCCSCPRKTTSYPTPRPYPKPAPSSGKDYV
Assay: flow cytometry on primary human cholangiocytes (HBEpiC) after 10 ng/ml TNFalpha for 24 h; anti-human AF647 secondary antibody
Protocol: Primary human cholangiocytes were purchased from Innoprot, Bizkaia, Spain (Human Biliary Epithelial Cells, HBEpiC, ref. P10654; Batch #21614) and cultured on poly-1-lysine-coated surfaces according to manufacturer's instructions. Following stimulation, with 10 ng/ml TNFα for 24 hours, cells were harvested for assessment of CLDN1 expression by flow cytometry using anti-CLDN1 mAb H3L3 (Colpitts et al. 2018) and an anti-human AF647-conjugated secondary antibody.

B1: anti-CLDN1 mAb H3L3 (antibody, human IgG1, kappa, V domains shown)
VH: QVQLVESGGGVVQPGRSLRLSCLGSGFSFSSYGMNWVRQAPGKGLEWVASISPSGSYFYYADSVKGRFTISRDNSKNTLYLQMTSLRAEDTAIYYCARLPGFNPPFDHWGQGTLVTVSS
VL: DIQMTQSPSSLSASVGDRVTITCKASQNVGGNVDWYQWKPGKAPKLLIYGASNRYTGVPDRFRGSGSGTDFTLTISSLQPEDVATYYCLQYKNNPWTFGGGTKVEIKR
notes: Humanized anti-Claudin-1 monoclonal antibody; also called CLDN1 H3L3; CLDN1-specific H3L3 mAb
- binding result: binds
